Laboratory results published in US20110059889A1 (SYNTONIX PHARMACEUTICALS, published 2011).
Like-named read-outs stand apart in the source and are kept apart here. Numbered stars: 1 amine (or outer) side, 2 acyl side, 3 side chain; on linkers, the order of the positions; unused ones are H or OH. Bridge positions count the residues as written; N and C are the ends. Square brackets hold non-standard residues; d marks the D form. Ends that are not written are not given here. X4 = (3S)‑3‑amino‑2‑oxo‑1‑piperidine‑acetic acid, O=C1[C@@H](N[*:1])CCCN1CC(=O)[*:2]; 5,5‑bicyclic dipeptide mimic = not defined here; Tyr(Me) = COc1ccc(C[C@H](N[*:1])C(=O)[*:2])cc1; Phe(3-Cl) = N[C@@H](Cc1cccc(Cl)c1)C(=O)O; Dip = N[C@H](C(=O)O)C(c1ccccc1)c1ccccc1; Phe(2-Cl) = N[C@@H](Cc1ccccc1Cl)C(=O)O; His(1-Me) = 1-methylhistidine; NMeL = CN[C@@H](CC(C)C)C(=O)O; Pen = CC(C)(S)[C@H](N)C(=O)O; Sar = CNCC(=O)O

Tests used:
[1] = biological target: T1, soluble human FcRn (shFcRn) (human, UniProt P55899 24-297; P61769 21-119); assay: IgG competition ELISA
T1 construct: Biotinylated for the ELISA, amine-coupled to a CM5 chip for SPR; also called biotinylated shFcRn

[2] = biological target: T1, soluble human FcRn (shFcRn); assay: IgG competition ELISA; remark: listed apart in the source
Protocol: (§1) The wells were coated with 100 μl/well of 1 μg/ml biotinylated-shFcRn in Buffer A. The plate was sealed and incubated at 37° C. for 2 hours. Afterwards, the plate was washed with 200 μl/well of Buffer B (Buffer B: 100 mM MES pH 6, 150 mM NaCl, 0.5% BSA IgG-free (Jackson ImmunoResearch, West Grove, Pa.), 0.05% Tween-20). […] To allow for mixing, the plate was rocked for 2 minutes, sealed and incubated at 37° C. for 2 hours. […] The plate was covered, incubated for 30 minutes at room temperature and washed 4 times with 200 μl/well of ice-cold buffer B. SureBlue TMB substrate solution (100 μl/well, KPL, Gaithersburg, Md.) was added and the plate was allowed to incubate at room temperature until color developed, which took 5 to 10 minutes. Once color developed, 100 μl/well of TMB stop solution (KPL, Gaithersburg, Md.) was added and the absorbance was measured at 450 nm. The data was plotted as absorbance vs. peptide concentration to derive the inhibitory concentration 50% (IC₅₀) values.

[3] = biological target: T1, soluble human FcRn (shFcRn); assay: SPR pH 6
Protocol: (§2) The following steps were performed to cross-link soluble human or cynomolgus FcRn to the dextran surface of a CM5 sensor chip (Biacore AB, Uppsala, Sweden) by an amine coupling reaction involving 1-ethyl-(3-dimethylaminopropyl)-carbodiimide hydrochloride (EDC) (Biacore AB, Uppsala, Sweden) and N-hydroxysuccinimide (NHS) (Biacore AB, Uppsala, Sweden) as recommended by Biacore (BIAapplications Handbook, version AB, section 4.2, Biacore AB, Uppsala, Sweden). […] Residual sites on the FcRn flow cell were blocked with 1 M ethanolamine hydrochloride pH 8.5 (Biacore AB, Uppsala, Sweden). A control flow cell was blocked with ethanolamine for reference subtraction. For analysis of the monomeric peptides, FcRn was coated to a final density of 4000-5000 response units (RU). For analysis of the peptide dimers, FcRn was coated to a density of 2000-2500 RU. All SPR measurements were performed using a BIACORE 3000 Instrument (Biacore AB Uppsala, Sweden). For measurements done at either pH 6 or pH 7.4, experiments were performed in 50 mM phosphate, 100 mM sodium chloride, 0.01% surfactant P20 (Biacore AB, Uppsala, Sweden).
(§3) Ten, 2-fold dilutions of the peptide were injected over the FcRn-CM5 chip at a rate of 20 μl/min for 2 min. The peptide was dissociated from the chip for 2.5 minutes with buffer. Any remaining peptide was removed from the chip with a 30 second injection of HBS-P buffer (Biacore AB, Uppsala, Sweden) at a rate of 30 μl/min. Sensorgrams were generated and analyzed using BiaEval software version 3.1 (Biacore AB, Uppsala, Sweden). The equilibrium RU observed for each injection was plotted against concentration. The equilibrium KD values were derived by analysis of the plots using the steady state affinity model included in the BiaEval software.

[4] = biological target: T1, soluble human FcRn (shFcRn); assay: SPR pH 6; remark: listed apart in the source
Protocol: as §2, §3

[5] = biological target: T1, soluble human FcRn (shFcRn); assay: IgG competition ELISA; remark: listed apart in the source
[6] = biological target: T1, soluble human FcRn (shFcRn); assay: IgG competition ELISA; remark: listed apart in the source
Protocol: as §1

T1 sequence (P55899 24-297 limits assumed, chain 1 of 2): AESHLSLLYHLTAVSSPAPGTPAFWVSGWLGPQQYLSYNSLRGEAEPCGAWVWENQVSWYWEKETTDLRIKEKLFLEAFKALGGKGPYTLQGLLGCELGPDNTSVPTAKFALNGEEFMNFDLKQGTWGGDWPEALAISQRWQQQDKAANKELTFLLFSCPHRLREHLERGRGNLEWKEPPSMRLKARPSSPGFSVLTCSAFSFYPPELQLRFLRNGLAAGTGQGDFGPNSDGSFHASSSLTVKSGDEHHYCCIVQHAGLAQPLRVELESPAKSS
T1 sequence (P61769 21-119 limits assumed, chain 2 of 2): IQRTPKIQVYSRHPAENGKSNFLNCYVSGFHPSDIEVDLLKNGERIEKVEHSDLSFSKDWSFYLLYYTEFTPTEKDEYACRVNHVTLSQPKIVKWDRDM

B1: Peptide No. 95 (peptide)
peptide: QRF[Pen]TGHWGGLYPCNGP-NH2
modifications: disulfide 4-14; N-terminus assumed
SMILES: CC(C)C[C@@H]1NC(=O)CNC(=O)CNC(=O)[C@H](Cc2c[nH]c3ccccc23)NC(=O)[C@H](Cc2c[nH]cn2)NC(=O)CNC(=O)[C@H]([C@@H](C)O)NC(=O)[C@@H](NC(=O)[C@H](Cc2ccccc2)NC(=O)[C@H](CCCNC(=N)N)NC(=O)[C@@H](N)CCC(N)=O)C(C)(C)SSC[C@@H](C(=O)N[C@@H](CC(N)=O)C(=O)NCC(=O)N2CCC[C@H]2C(N)=O)NC(=O)[C@@H]2CCCN2C(=O)[C@H](Cc2ccc(O)cc2)NC1=O
In the case of B1, the IC50 [1] is reported as 26 µM.

B2: Peptide No. 153 (peptide)
peptide: QRF[Pen]TGHF[dF]G[NMeL]YPCNGP-NH2
modifications: disulfide 4-14; N-terminus assumed
SMILES: CC(C)C[C@H]1C(=O)N[C@@H](Cc2ccc(O)cc2)C(=O)N2CCC[C@H]2C(=O)N[C@H](C(=O)N[C@@H](CC(N)=O)C(=O)NCC(=O)N2CCC[C@H]2C(N)=O)CSSC(C)(C)[C@H](NC(=O)[C@H](Cc2ccccc2)NC(=O)[C@H](CCCNC(=N)N)NC(=O)[C@@H](N)CCC(N)=O)C(=O)N[C@@H]([C@@H](C)O)C(=O)NCC(=O)N[C@@H](Cc2c[nH]cn2)C(=O)N[C@@H](Cc2ccccc2)C(=O)N[C@H](Cc2ccccc2)C(=O)NCC(=O)N1C
B2 showed an IC50 [2] of 1.3 µM and a Kd [3] of 0.24 µM.

B3: Peptide No. 155 (peptide)
peptide: QRF[Pen]TGHF[dF]GPYPCNGP-NH2
modifications: disulfide 4-14; N-terminus assumed
SMILES: C[C@@H](O)[C@@H]1NC(=O)[C@@H](NC(=O)[C@H](Cc2ccccc2)NC(=O)[C@H](CCCNC(=N)N)NC(=O)[C@@H](N)CCC(N)=O)C(C)(C)SSC[C@@H](C(=O)N[C@@H](CC(N)=O)C(=O)NCC(=O)N2CCC[C@H]2C(N)=O)NC(=O)[C@@H]2CCCN2C(=O)[C@H](Cc2ccc(O)cc2)NC(=O)[C@@H]2CCCN2C(=O)CNC(=O)[C@@H](Cc2ccccc2)NC(=O)[C@H](Cc2ccccc2)NC(=O)[C@H](Cc2c[nH]cn2)NC(=O)CNC1=O
B3 gave an IC50 [2] of 39 µM and a Kd [3] of 18.3 µM.

B4: Peptide No. 266 (peptide)
peptide: RF[Pen]TGAFG[Sar][NMeL]YPC-NH2
modifications: disulfide 3-13; N-terminus assumed
SMILES: CC(C)C[C@H]1C(=O)N[C@@H](Cc2ccc(O)cc2)C(=O)N2CCC[C@H]2C(=O)N[C@H](C(N)=O)CSSC(C)(C)[C@H](NC(=O)[C@H](Cc2ccccc2)NC(=O)[C@@H](N)CCCNC(=N)N)C(=O)N[C@@H]([C@@H](C)O)C(=O)NCC(=O)N[C@@H](C)C(=O)N[C@@H](Cc2ccccc2)C(=O)NCC(=O)N(C)CC(=O)N1C
For B4, the Kd [4] was 9.9 µM and the IC50 [5] was over 100 µM.

QRFCTGHFXGLYPCNGP (Pen 4; Aib 9; disulfide 4-14; C-terminal amide) [Peptide No. 54] showed an IC50 [2] of 17 µM and a Kd [3] of 5.2 µM.

B5: Peptide No. 56 (peptide)
peptide: QRF[Pen]TGH[Tyr(Me)]GGLYPCNGP-NH2
modifications: disulfide 4-14; N-terminus assumed
SMILES: COc1ccc(C[C@@H]2NC(=O)[C@H](Cc3c[nH]cn3)NC(=O)CNC(=O)[C@H]([C@@H](C)O)NC(=O)[C@@H](NC(=O)[C@H](Cc3ccccc3)NC(=O)[C@H](CCCNC(=N)N)NC(=O)[C@@H](N)CCC(N)=O)C(C)(C)SSC[C@@H](C(=O)N[C@@H](CC(N)=O)C(=O)NCC(=O)N3CCC[C@H]3C(N)=O)NC(=O)[C@@H]3CCCN3C(=O)[C@H](Cc3ccc(O)cc3)NC(=O)[C@H](CC(C)C)NC(=O)CNC(=O)CNC2=O)cc1
Binder B5 has an IC50 [1] of 100 µM.

With QRFCTGHXGGLYPCNGP (Pen 4; 2-pyridylalanine 8; disulfide 4-14; C-terminal amide) [Peptide No. 58] the IC50 [1] was 90 µM.

B6: Peptide No. 221 (peptide)
peptide: RF[Pen]TGH[Phe(2-Cl)]GGLYPC-NH2
modifications: disulfide 3-13; N-terminus assumed
SMILES: CC(C)C[C@@H]1NC(=O)CNC(=O)CNC(=O)[C@H](Cc2ccccc2Cl)NC(=O)[C@H](Cc2c[nH]cn2)NC(=O)CNC(=O)[C@H]([C@@H](C)O)NC(=O)[C@@H](NC(=O)[C@H](Cc2ccccc2)NC(=O)[C@@H](N)CCCNC(=N)N)C(C)(C)SSC[C@@H](C(N)=O)NC(=O)[C@@H]2CCCN2C(=O)[C@H](Cc2ccc(O)cc2)NC1=O
B6 gave an IC50 [1] of 4 µM.

B7: Peptide No. 222 (peptide)
peptide: RF[Pen]TGH[Phe(3-Cl)]GGLYPC-NH2
modifications: disulfide 3-13; N-terminus assumed
SMILES: CC(C)C[C@@H]1NC(=O)CNC(=O)CNC(=O)[C@H](Cc2cccc(Cl)c2)NC(=O)[C@H](Cc2c[nH]cn2)NC(=O)CNC(=O)[C@H]([C@@H](C)O)NC(=O)[C@@H](NC(=O)[C@H](Cc2ccccc2)NC(=O)[C@@H](N)CCCNC(=N)N)C(C)(C)SSC[C@@H](C(N)=O)NC(=O)[C@@H]2CCCN2C(=O)[C@H](Cc2ccc(O)cc2)NC1=O
B7 was tested, and the IC50 [1] was 3.7 µM.

B8: Peptide No. 224 (peptide)
peptide: RF[Pen]TGH[Dip]GGLYPC-NH2
modifications: disulfide 3-13; N-terminus assumed
SMILES: CC(C)C[C@@H]1NC(=O)CNC(=O)CNC(=O)[C@H](C(c2ccccc2)c2ccccc2)NC(=O)[C@H](Cc2c[nH]cn2)NC(=O)CNC(=O)[C@H]([C@@H](C)O)NC(=O)[C@@H](NC(=O)[C@H](Cc2ccccc2)NC(=O)[C@@H](N)CCCNC(=N)N)C(C)(C)SSC[C@@H](C(N)=O)NC(=O)[C@@H]2CCCN2C(=O)[C@H](Cc2ccc(O)cc2)NC1=O
Binder B8 has an IC50 [1] of 32 µM.

QRF[Pen]TG[His(1-Me)]FGGLYPCNGP-NH2 (disulfide 4-14) [Peptide No. 138] showed a Kd [4] of 0.74 µM and an IC50 [5] of 3.4 µM.

In the case of RFCTGXFGGLYPC (Pen 3; Thz 6; Sar 9; NMeL 10; disulfide 3-13; C-terminal amide) [Peptide No. 248], the Kd [4] is reported as 0.84 µM and the IC50 [5] is reported as 1.6 µM.

B9: Peptide No. 193 (peptide)
peptide: RF[Pen]TGHF[X4]LYPC-NH2
modifications: disulfide 3-12; N-terminus assumed
SMILES: CC(C)C[C@@H]1NC(=O)CN2CCC[C@H](NC(=O)[C@H](Cc3ccccc3)NC(=O)[C@H](Cc3c[nH]cn3)NC(=O)CNC(=O)[C@H]([C@@H](C)O)NC(=O)[C@@H](NC(=O)[C@H](Cc3ccccc3)NC(=O)[C@@H](N)CCCNC(=N)N)C(C)(C)SSC[C@@H](C(N)=O)NC(=O)[C@@H]3CCCN3C(=O)[C@H](Cc3ccc(O)cc3)NC1=O)C2=O
B9 was tested, and the IC50 [6] was 7.3 µM.

Binder RF[Pen]TGHF[5,5‑bicyclic dipeptide mimic]LYPC-NH2 (disulfide 3-12; reading uncertain, isomer only in drawing CHEM-US-00084) [Peptide No. 198] has an IC50 [6] of 23 µM.

B10: Peptide No. 239 (peptide)
peptide: RFCTGHFXLYPC
modifications: not fully specified; Pen 3; X 8 = 3(S)-3-amino-2-oxo-1-azepine acetic acid in place of Gly-Gly; NMeLeu 9; disulfide 3-12; C-terminal amide
B10 gave an IC50 [6] of 0.62 µM.
